In patent publication US20220378931A1 (Eli Lilly, published 2022):

Legend:
rabbit serum albumin = target: T1, rabbit serum albumin (rabbit, UniProt P49065 25-608); test: SPR (Biacore 8K), albumin immobilised, 25 C
T1 construct: bought protein, amine-coupled to a CM5 chip; also called Rabbit SA
Description: (§1) Immobilization of serum albumin to a Series S Sensor Chip CM5 surface is performed according to the manufacturer's instructions (Amine Coupling Kit BR-1000-50). Briefly, carboxyl groups on the sensor chip surfaces (flow cell 1 and 2) are activated by injecting 70 μL of a mixture containing 75 mg/ml EDC and 11.5 mg/ml NHS at 10 μL/min. Human, cynomolgus monkey, mouse, rat, pig, dog, cow and rabbit serum albumin are diluted in 10 mM NaOAc pH 4.0 (BR-1003-49) at 1, 1, 3, 1, 1, 1, 1 and 1 μg/mL and then injected over the activated chip surfaces (flow cell 2, […]) at 10 μL/min for 90 sec (human, mouse, rat, pig and cow serum albumin are obtained from Sigma Aldrich (St. Louis, Mo.); cynomolgus monkey serum albumin is obtained from Holzel Diagnostika (Cologne, Germany); dog serum albumin is obtained from Molecular Innovations (Novi, Mich.); and rabbit serum albumin is obtained from Fitzgerald Industries International (Acton, Mass.)). […] Excess reactive groups on the surfaces (flow cell 1 and 2) are deactivated by injecting 70 μL of 1 M ETA HCl—NaOH pH 8.5 at 10 μL/min.
(§2) 150 μL of sample is individually injecting sequentially across the immobilized serum albumins surface and then dissociates for 600 sec at 50 μL/min flow rate at 25° C. The surface is regenerated by injecting 10 mM glycine-HCl pH 1.5 (BR-1003-54) at 50 μL/min for 100 sec. The resulting sensorgrams are analyzed using Biacore 8K Insight Evaluation Software (version 2.0.15.12933) 1:1 binding kinetics or steady-state affinity model fitting to calculate the binding kinetic parameter association rate (ka), dissociation rate (kd), and equilibrium dissociation constant (KD)

[1] = target: T2, human insulin receptor isoform A with C-terminal C9 tag (human, UniProt P06213 28-1382); test: 125I-insulin competition SPA, hIR-A membranes, 0.1% BSA
T2 construct: membranes of stably transfected HEK293 cells; also called hIR-A; human IR-A
Description: (§3) The assays are performed with a SPA method using polyvinyltoluene (PVT) wheat germ agglutinin-coupled SPA beads (Perkin Elmer). Assay buffer contains 50 mM Tris-HCl, pH 7.5, 150 mM NaCl and either A) 0.1% w/v fatty-acid free BSA; B) 0.1% w/v fatty-acid free human serum albumin (HSA); C) 0.1% w/v rat serum albumin (RSA); or D) 0.001% Nonidet P-40 Substitute (NP-40, Roche Diagnostics). Ten-point concentration response curves using three-fold serial dilutions of test samples or controls are prepared in Assay Buffer using a Freedom/Evo robot (Tecan).
(§4) Percent specific inhibition (y-axis) is plotted versus the log concentration of compound (x-axis). […] Reported Ki values are shown as the geometric mean with the standard error (Delta Method Standard Error) and the number of independent replicate determinations used to calculate the geometric mean indicated by n.

human serum albumin = target: T3, human serum albumin (human, UniProt P02768 25-609); test: SPR (Biacore 8K), albumin immobilised, 25 C, 1:1 kinetics
T3 construct: bought protein, amine-coupled to a CM5 chip; also called Human SA; HSA
Description: as §1, §2

[2] = target: T4, cynomolgus monkey serum albumin (cynomolgus monkey, UniProt A2V9Z4 25-608); test: as above
T4 construct: bought protein, amine-coupled to a CM5 chip; also called Cyno SA
Description: as §1, §2

mouse serum albumin = target: T5, mouse serum albumin (mouse, UniProt P07724 25-608); test: as above
T5 construct: bought protein, amine-coupled to a CM5 chip; also called Mouse SA
Description: as §1, §2

rat serum albumin = target: T6, rat serum albumin (rat, UniProt P02770 25-608); test: as above
T6 construct: bought protein, amine-coupled to a CM5 chip; also called Rat SA; RSA
Description: as §1, §2

pig serum albumin = target: T7, pig serum albumin (pig, UniProt P08835 25-607); test: as above
T7 construct: bought protein, amine-coupled to a CM5 chip; also called Pig SA
Description: as §1, §2

dog serum albumin = target: T8, dog serum albumin (dog, UniProt P49822 25-608); test: as above
T8 construct: bought protein, amine-coupled to a CM5 chip; also called Dog SA
Description: as §1, §2

[3] = target: T2, human insulin receptor isoform A with …; test: 125I-insulin competition SPA, hIR-A membranes, 0.001% NP-40
Description: as §3, §4

cow serum albumin = target: T9, cow serum albumin (cow, UniProt P02769 25-607); test: SPR (Biacore 8K), albumin immobilised, 25 C, steady-state affinity
T9 construct: bought protein, amine-coupled to a CM5 chip; also called Cow SA; Bovine SA
Description: as §1, §2

[4] = target: T2, human insulin receptor isoform A with …; test: 125I-insulin competition SPA, hIR-A membranes, 0.1% HSA
Description: as §3, §4

[5] = target: T10, human insulin receptor isoform B with C-terminal C9 tag (human, UniProt P06213 28-1382); test: 125I-insulin competition SPA, hIR-B membranes, 0.1% BSA
T10 construct: membranes of stably transfected HEK293 cells; also called hIR-B; human IR-B
Description: as §3, §4

[6] = target: T10, human insulin receptor isoform B with …; test: 125I-insulin competition SPA, hIR-B membranes, 0.1% HSA
Description: as §3, §4

[7] = target: T10, human insulin receptor isoform B with …; test: 125I-insulin competition SPA, hIR-B membranes, 0.001% NP-40
Description: as §3, §4

Ki [1] [nM]	Ki [3] [nM]	Ki [4] [nM]	Ki [5] [nM]	Ki [6] [nM]	Ki [7] [nM]	Binder	also measured
55.1	18.9					INS Analog 23 (other, single-chain insulin B-L2-A-L1-VHH fusion; also called Ex. 23) FVSQHLCGSHLVEALHLVCGERGFHYTPKTGGGGGGGIVEQCCHSICSLEQLENYCGGGGGQGGGGQGGGGQGGGGQGGGGQEVQLLESGGGLVQPGGSLRLSCAASGRYIDETAVAWFRQAPGKEREFVAGIGGGVDITYYADSVKGRFTISRDNSKNTLYLQMNSLRPEDTAVYYCAARPGRPLITSKVADLYPYWGQGTLVTVSSPP	binding result (rabbit serum albumin): no binding (tested: up to 1000 nM); Kd (human serum albumin): 0.73 nM; koff (human serum albumin): 9e-05 s⁻¹; kon (human serum albumin): 120000 M⁻¹ s⁻¹; Kd [2]: 6.8 nM; koff [2]: 0.00084 s⁻¹; kon [2]: 120000 M⁻¹ s⁻¹; Kd (mouse serum albumin): 76 nM; koff (mouse serum albumin): 0.0093 s⁻¹; kon (mouse serum albumin): 120000 M⁻¹ s⁻¹; Kd (rat serum albumin): 53 nM; koff (rat serum albumin): 0.0065 s⁻¹; kon (rat serum albumin): 120000 M⁻¹ s⁻¹; Kd (pig serum albumin): 130 nM; koff (pig serum albumin): 0.012 s⁻¹; kon (pig serum albumin): 95000 M⁻¹ s⁻¹; Kd (dog serum albumin): 23 nM; koff (dog serum albumin): 0.0033 s⁻¹; kon (dog serum albumin): 140000 M⁻¹ s⁻¹; Kd (cow serum albumin): 590 nM
36.1	14.3	36.3	120	47.1	45.4	INS Analog 7 (other, single-chain insulin B-L2-A-L1-VHH fusion; also called Ex. 7) FVSQHLCGSHLVEALYLVCGERGFFYTPKTGGGGGGGIVEQCCTSICSLYQLENYCGPGPAPGPAPGPAPGPAPGPAPGPAPGPAPGPAEVQLLESGGGLVQPGGSLRLSCAASGRYIDETAVAWFRQAPGKEREFVAGIGGGVDITYYADSVKGRFTISRDNSKNTLYLQMNSLRPEDTAVYYCAARPGRPLITSKVADLYPYWGQGTLVTVSSPP	
31.4	45.1	31.9	56	29.7	39.2	INS Analog 2 (other, single-chain insulin B-L2-A-L1-VHH fusion; also called Ex. 2) FVDQHLCGSHLVEALYLVCGERGFFYTPKTGGGGGGGIVEQCCTSICSLYQLENYCGPGPAPGPAPGPAPGPAPGPAPGPAPGPAPGPAEVQLLESGGGLVQPGGSLRLSCAASGRTVSSTAVAWFRQAPGKEREFVAGIGGSVDITYYADSVKGRFTISRDNSKNTLYLQMNSLRPEDTAVYYCAVRPGRPLITSRDANLYDYWGQGTLVTVSS	

Continued, binder first:

Binder	Ki [1] [nM]	Ki [3] [nM]	Ki [4] [nM]	Ki [5] [nM]	Ki [6] [nM]	Ki [7] [nM]	also measured
INS Analog 17 (other, single-chain insulin B-L2-A-L1-VHH fusion; also called Ex. 17) FVSQHLCGSHLVEALRLVCGERGFFYTPKTGGGGGGGIVEQCCHSICSLYQLENYCGPGPAPGPAPGPAPGPAPGPAPGPAPGPAPGPAEVQLLESGGGLVQPGGSLRLSCAASGRYIDETAVAWFRQAPGKEREFVAGIGGGVDITYYADSVKGRFTISRDNSKNTLYLQMNSLRPEDTAVYYCAARPGRPLITSKVADLYPYWGQGTLVTVSSPP	81.8	31.3	31.3	110	102	44.3	
INS Analog 18 (other, single-chain insulin B-L2-A-L1-VHH fusion; L1 is (PGPA)8; also called Ex. 18) FVSQHLCGSHLVEALRLVCGERGFHYTPKTGGGGGGGIVEQCCHSICSLYQLENYCGPGPAPGPAPGPAPGPAPGPAPGPAPGPAPGPAEVQLLESGGGLVQPGGSLRLSCAASGRYIDETAVAWFRQAPGKEREFVAGIGGGVDITYYADSVKGRFTISRDNSKNTLYLQMNSLRPEDTAVYYCAARPGRPLITSKVADLYPYWGQGTLVTVSSPP	204	89.5	518	299	239	134	
INS Analog 12 (other, single-chain insulin B-L2-A-L1-VHH fusion; also called Ex. 12) FVSQHLCGSHLVEALHLVCGERGFHYTPKTGGGGGGGIVEQCCHSICSLYQLENYCGPGPAPGPAPGPAPGPAPGPAPGPAPGPAPGPAEVQLLESGGGLVQPGGSLRLSCAASGRYIDETAVAWFRQAPGKEREFVAGIGGGVDITYYADSVKGRFTISRDNSKNTLYLQMNSLRPEDTAVYYCAARPGRPLITSKVADLYPYWGQGTLVTVSSPP	37.9	25	42.3	113	62.1	42.8	
INS Analog 11 (other, single-chain insulin B-L2-A-L1-VHH fusion; also called Ex. 11) FVSQHLCGSHLVEALHLVCGERGFFYTPKTGGGGGGGIVEQCCHSICSLEQLENYCGPGPAPGPAPGPAPGPAPGPAPGPAPGPAPGPAEVQLLESGGGLVQPGGSLRLSCAASGRYIDETAVAWFRQAPGKEREFVAGIGGGVDITYYADSVKGRFTISRDNSKNTLYLQMNSLRPEDTAVYYCAARPGRPLITSKVADLYPYWGQGTLVTVSSPP	36	20.5	31.8	164	95.4	81.1	
INS Analog 14 (other, single-chain insulin B-L2-A-L1-VHH fusion; also called Ex. 14) FVSQHLCGSHLVEALRLVCGERGFFYTPKTGGGGGGGIVEQCCTSICSLYQLENYCGPGPAPGPAPGPAPGPAPGPAPGPAPGPAPGPAEVQLLESGGGLVQPGGSLRLSCAASGRYIDETAVAWFRQAPGKEREFVAGIGGGVDITYYADSVKGRFTISRDNSKNTLYLQMNSLRPEDTAVYYCAARPGRPLITSKVADLYPYWGQGTLVTVSSPP	282	163	124	378	447	234	
INS Analog 13 (other, single-chain insulin B-L2-A-L1-VHH fusion; also called Ex. 13) FVSQHLCGSHLVEALHLVCGERGFHYTPKTGGGGGGGIVEQCCHSICSLEQLENYCGPGPAPGPAPGPAPGPAPGPAPGPAPGPAPGPAEVQLLESGGGLVQPGGSLRLSCAASGRYIDETAVAWFRQAPGKEREFVAGIGGGVDITYYADSVKGRFTISRDNSKNTLYLQMNSLRPEDTAVYYCAARPGRPLITSKVADLYPYWGQGTLVTVSSPP	60.3	23.1	34.6	131	89	39.2	
